Data set [1] addresses mouse DEC205 (mouse) (UniProt Q60767). Kind of data set: cell-based or functional assay.
For data set [2], the target named is DEC205 (CD205, LY75), mouse, surface-expressed (Mus musculus, UniProt Q60767 Q60767:28-1723). In words: flow; apparent; A20.Kb/mDEC205 cells; RPMI + 1 mg/mL ssDNA, 37 C, 15 min; one-site fit. As to conditions: tags: full-length, stably expressed on CHO (CHO/mDEC205) or A20.Kb/mDEC205 cells; label: Alexa Fluor 488 (5'); Mfold-predicted stem-loop with conserved UUCAUAA. How it is done:
The minimized aptamer, min.2 (FIG. 3a), was chemically synthesized bearing a 3′ inverted dT for added serum stability and a 5′ thiol to facilitate subsequent chemical conjugations. When labeled with Alexa Fluor 488, this chemically synthesized aptamer performed as well as constructs produced by transcription (data not shown). Direct labeling of min.2 also allowed us to measure the apparent dissociation constant of this aptamer for cell-surface mDEC205 on A20 cells (23±6 nM; FIG. 3b). The specificity of Clone 1 and high affinity of its minimized form, min.2, constitute a promising basis for using this aptamer for targeted antigen delivery.
mDEC205 Cell Surface Binding Assay: A20.Kb cells or A20.Kb.mDEC205 cells which are engineered to express higher amounts of mDEC205 were washed with RPMI, resuspended at 1×10⁵ cells in 100 μL RPMI supplemented with 1 mg/mL ssDNA, and stored on ice while Alexa Fluor 488-conjugated min.2 and Alexa Fluor 488-conjugated cntrl.36 were prepared as described previously. After addition of refolded RNA to cells, the RNA-cell mixture was incubated for 15 minutes at 37° C., washed with and resuspended in flow cytometry buffer, and analyzed by flow cytometry. […]

mouse DEC205 (mouse), sequence (Q60767 28-1723): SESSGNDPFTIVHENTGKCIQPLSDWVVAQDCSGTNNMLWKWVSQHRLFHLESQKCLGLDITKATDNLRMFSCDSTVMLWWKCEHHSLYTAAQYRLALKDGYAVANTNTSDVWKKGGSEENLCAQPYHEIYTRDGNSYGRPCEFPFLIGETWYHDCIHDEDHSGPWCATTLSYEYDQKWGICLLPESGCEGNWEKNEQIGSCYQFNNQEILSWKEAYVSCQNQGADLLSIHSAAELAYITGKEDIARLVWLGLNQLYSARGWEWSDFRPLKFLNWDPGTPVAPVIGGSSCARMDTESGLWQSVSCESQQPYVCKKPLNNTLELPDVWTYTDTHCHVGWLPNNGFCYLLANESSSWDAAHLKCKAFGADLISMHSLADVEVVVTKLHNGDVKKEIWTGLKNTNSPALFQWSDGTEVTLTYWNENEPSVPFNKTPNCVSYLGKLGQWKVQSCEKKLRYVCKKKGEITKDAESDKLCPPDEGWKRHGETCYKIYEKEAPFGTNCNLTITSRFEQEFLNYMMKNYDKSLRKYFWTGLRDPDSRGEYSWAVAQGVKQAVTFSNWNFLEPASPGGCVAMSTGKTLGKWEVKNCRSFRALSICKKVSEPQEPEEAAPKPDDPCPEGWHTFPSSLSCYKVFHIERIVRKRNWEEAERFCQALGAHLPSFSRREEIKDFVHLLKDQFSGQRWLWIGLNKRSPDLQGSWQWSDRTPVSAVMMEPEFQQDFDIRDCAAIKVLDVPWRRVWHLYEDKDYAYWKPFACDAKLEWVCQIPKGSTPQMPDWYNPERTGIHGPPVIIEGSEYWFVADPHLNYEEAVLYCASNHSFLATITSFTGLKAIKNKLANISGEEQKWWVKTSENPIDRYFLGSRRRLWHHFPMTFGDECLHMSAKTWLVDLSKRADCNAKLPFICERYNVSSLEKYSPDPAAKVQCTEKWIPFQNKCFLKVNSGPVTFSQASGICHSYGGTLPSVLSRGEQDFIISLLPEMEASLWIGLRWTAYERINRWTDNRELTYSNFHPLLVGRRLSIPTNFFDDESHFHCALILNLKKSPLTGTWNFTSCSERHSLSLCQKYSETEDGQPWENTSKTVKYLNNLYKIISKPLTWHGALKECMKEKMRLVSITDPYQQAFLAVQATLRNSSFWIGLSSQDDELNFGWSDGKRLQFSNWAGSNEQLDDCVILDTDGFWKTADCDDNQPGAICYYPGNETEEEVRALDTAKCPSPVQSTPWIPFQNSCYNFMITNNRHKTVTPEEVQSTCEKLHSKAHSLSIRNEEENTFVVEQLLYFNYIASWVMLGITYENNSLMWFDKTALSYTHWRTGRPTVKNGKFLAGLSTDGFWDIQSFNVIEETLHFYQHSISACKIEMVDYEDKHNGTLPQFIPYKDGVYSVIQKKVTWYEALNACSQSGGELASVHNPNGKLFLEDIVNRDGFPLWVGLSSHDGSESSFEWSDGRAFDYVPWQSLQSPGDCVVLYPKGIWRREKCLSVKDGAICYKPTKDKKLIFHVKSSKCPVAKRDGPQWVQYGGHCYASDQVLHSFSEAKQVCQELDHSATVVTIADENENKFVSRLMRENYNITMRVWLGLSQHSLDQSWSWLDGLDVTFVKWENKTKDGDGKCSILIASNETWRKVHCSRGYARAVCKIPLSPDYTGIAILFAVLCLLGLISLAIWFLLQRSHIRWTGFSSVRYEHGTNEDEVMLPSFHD
DEC205 (CD205, LY75), mouse, surface-expressed, sequence (Q60767 28-1723, one chain of several): as the sequence (Q60767 28-1723) above

On to “NLDC145:OVA, recombinant fusion of OVA and anti-mDEC205 antibody clone NLDC145”, for which the OT-I cell proliferation (CFSE dilution) after two days with antigen-treated CD11c+ splenocytes in data set [1] is greater than 80%.

Consider GGGAGGUGUGUUAGCACACGAUUCAUAAUCAGCUACCCUCCC (ssRNA, 2'-F pyrimidines; 3' idT; 5' thiol C6) [min.2], for which the Kd in data set [2] is 23 nM.

The values are drawn from patent US20150191730A1, “APTAMER-TARGETTED ANTIGEN DELIVERY” (ALBERT EINSTEIN COLLEGE OF MEDICINE OF YESHIVA UNIVERSITY, published 2015).
